Data: patent US11857645B2, “Compositions of near IR closed chain, sulfo-cyanine dyes and prostate specific membrane antigen ligands” (priority 2016, dated 2024)

Assays:
[1] = in vivo
Description: (§1) Other methods of assessing the toxicity of compounds include in vivo studies which administer relatively large doses of a test compound to a group of animals to determine the level which is lethal to a percentage of the population (mean lethal dose LD50 or mean lethal concentration LC50). Toxicity of a compound can also be assessed in vivo by examining whether a compound produces statistically significant negative effects on cardiac, blood pressure, central nervous system (CNS), body weight, food intake, gross or microscopic pathology, clinical pathology, or respiratory measures in an animal.
(§2) Furthermore, toxicology of the composition of formula III was also investigated in non-clinical in vivo studies in both rats and dogs.

[2] = mortality in rat animal model; assay type: in vivo; conditions: any tested dose
Description: as §1, §2

[3] = stability in rat plasma (in vitro metabolic stability studies); assay type: in vitro ADME
Experimental: (§3) For example, determination of metabolic stability is commonly examined when assessing the toxicity of a compound as it is one of several major determinates in defining the oral bioavailability and systemic clearance of a compound. After a compound is administered orally, it first encounters metabolic enzymes in the gastrointestinal lumen as well as in the intestinal epithelium. After it is absorbed into the bloodstream through the intestinal epithelium, it is first delivered to the liver via the portal vein. A compound can be effectively cleared by intestinal or hepatic metabolism before it reaches systemic circulation, a process known as first pass metabolism. The stability of a compound towards metabolism within the liver as well as extrahepatic tissues will ultimately determine the concentration of the compound found in the systemic circulation and affect its half-life and residence time within the body. Cytochrome P450 (CYP) enzymes are found primarily in the liver but also in the intestinal wall, lungs, kidneys and other extrahepatic organs and are the major enzymes involved in compound metabolism. Many compounds undergo deactivation by CYPs, either directly or by facilitated excretion from the body. […]
(§4) Further safety pharmacology was assessed in vitro using the human ether-a-go-go related gene (hERG) assay for determining possible cardio-toxic effects.

[4] = mortality in pig animal model; assay type: in vivo; conditions: any tested dose
Description: as §1, §2

[5] = system: 9 major CYP liver enzymes; experiment: reactivity to CYP liver enzymes; assay type: in vitro ADME; conditions: in vitro
Experimental: as §3, §4

[6] = mortality in dog animal model; assay type: in vivo; conditions: any tested dose
Description: as §1, §2

[7] = stability in human plasma (in vitro metabolic stability studies); assay type: in vitro ADME
Experimental: as §3, §4

[8] = stability in dog plasma (in vitro metabolic stability studies); assay type: in vitro ADME
Experimental: as §3, §4

[9] = system: tester strains (histidine (his) biosynthetic operon mutants); experiment: Ames reverse mutation assay; assay type: cell-based; conditions: any of the tested doses
Description: The Ames reverse mutation Assay is another common toxicology assay for assessing the toxicity of a compound. The Ames Assay, utilizes several different tester strains, each with a distinct mutation in one of the genes comprising the histidine (his) biosynthetic operon (Ames, B. N., et al., (1975) Mutation Res. 31:347-363). […] The Ames Assay is capable of detecting several different types of mutations (genetic damage) that may occur in one or more of the tester strains. The practice of using an in vitro bacterial assay to evaluate the genotoxic activity of drug candidates is based on the prediction that a substance that is mutagenic in a bacterium is likely to be carcinogenic in laboratory animals, and by extension may be carcinogenic or mutagenic to humans.
as §4

[10] = in vitro metabolic stability: breakdown into metabolites; assay type: in vitro ADME
Experimental: as §3, §4

Structure (SMILES): CC1(C)C(/C=C/C2=C(Oc3ccc(S(=O)(=O)O)cc3)C(=C/C=C3/N(CCCS(=O)(=O)O)c4ccccc4C3(C)CCCC(=O)NCCCCC(NC(=O)CCCCCCC(=O)NCCCC[C@H](NC(=O)N[C@@H](CCC(=O)O)C(=O)O)C(=O)O)C(=O)O)/CCC2)=[N+](CCCS(=O)(=O)[O-])c2ccccc21 (stereo partly drawn) [formula III]
- effects on body weight, food intake, gross or microscopic pathology and clinical pathology ([1]; dog): no significant effects
- effects on cardiac, blood pressure or respiratory measures ([1]; dog): no statistically significant negative effects
- effects on the central nervous system (CNS) ([1]; rat): no biologically meaningful effects
- mortality [2]: No mortality
- stability in plasma [3]: stable
- mortality [4]: No mortality
- reactivity to CYP liver enzymes [5]: does not show any significant reactivity
- mortality [6]: No mortality
- stability in plasma [7]: stable
- stability in plasma [8]: stable
- mutagenicity [9]: does not show any mutagenicity
- breakdown into metabolites [10]: does not appear to be broken down into metabolites
